The results in this text go back to patent CN114437205A.

For this test, the target named is SARS S-his (SARS).

B1: 抗体CT150 (antibody, V domains shown)
VH: QEQLVESGGGVVQPGRSLRLSCAASGFTFSSYAMHWVRQAPGEGLEWVALISYDGDNKYYADSVKGRFTISRDNSKTTLFLQMNSLRAEDTAVYYCARDRGSYFYGVDVWGQGATVTVSS
VL: DIQLTQSPSFLSASVGDRVTITCRASQDINSYLAWYQQKPGKAPKLLIYAASTLQSGVPSRFSGSGSGTEFTLTISSLQPEDFATYYCQQLNSYPIFTFGPGTKVDIK
In turn, B1 had an EC50 of 0.129 µg/mL.

In general, EC50 refers to the concentration that produces a half-maximal response. Lower therefore signals a more potent agent.
